# Reference: article PMC4742118, “The ON:OFF switch, σ1R-HINT1 protein, controls GPCR-NMDA receptor cross-regulation: Implications in neurological disorders” (Oncotarget, 2015)
# B1: recombinant HINT1 protein (natural protein, mouse, UniProt P70349 1-126, looked up)
# chain: MADEIAKAQVAQPGGDTIFGKIIRKEIPAKIIFEDDRCLAFHDISPQAPTHFLVIPKKHISQISVADDDDESLLGHLMIVGKKCAADLGLKRGYRMVVNEGADGGQSVYHIHLHVLGGRQMNWPPG
# notes: HINT1, coding region of NM_008248, amplified from mouse brain RNA; also called PKCI/HINT1; source: E. coli BL21 (KRX), purified (GSTrap FF; when necessary cleaved with ProTEV and electroeluted)
# B2: GST-MOR (domain or fragment, mus musculus, UniProt P42866 286-398, looked up)
# chain: VAVFIVCWTPIHIYVIIKALITIPETTFQTVSWHFCIALGYTNSCLNPVLYAFLDENFKRCFREFCIPTSSTIEQQNSARIRQNTREHPSTANTVDRTNHQLENLEAETAPLP
# notes: C-terminal region of mus musculus MOR1 (AB047546), residues 286-398; the methods speak of MOR Ct; also called GST-tagged MOR; MOR Ct; source: E. coli BL21 (KRX), purified (GSTrap FF); not shown: GST, N-terminal, kept
# Assays:
# Conditions in all cases: both partners purified
# GST-σ1R = molecular target: T1, GST-σ1R (murine, UniProt O55242 1-223); experiment: pull-down; HINT1 protomer 200 nM with GST fusion protein 100 nM in 50 mM Tris-HCl pH 7.4, 2.5 mM CaCl2, 0.2% CHAPS, 30 min RT; captured on glutathione Sepharose 4B; Western blot
# T1 construct: murine full-length (1-223) σ1R, GenBank AF004927, cloned downstream of GST and a TEV protease site; also called GST-tagged σ1 receptor; source: E. coli BL21 (KRX), purified (GSTrap FF); not shown: GST, N-terminal, kept
# T1 sequence (O55242 whole entry, the tested form may be a part): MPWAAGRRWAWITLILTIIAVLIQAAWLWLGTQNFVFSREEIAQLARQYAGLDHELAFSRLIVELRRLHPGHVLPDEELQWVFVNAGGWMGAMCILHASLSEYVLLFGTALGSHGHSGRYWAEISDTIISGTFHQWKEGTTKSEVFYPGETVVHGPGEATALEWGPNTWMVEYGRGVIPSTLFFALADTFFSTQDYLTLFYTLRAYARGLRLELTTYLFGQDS
# recombinant σ1R = molecular target: T2, recombinant σ1R (murine, UniProt O55242 1-223); experiment: pull-down; bait (GST-NR1 C0-C1-C2 or GST-MOR) covalently attached to NHS-activated Sepharose; σ1R 100 nM in 50 mM Tris-HCl pH 7.4, 0.2% CHAPS, 30 min RT; 0 mM CaCl2; Western blot
# T2 construct: murine full-length (1-223) σ1R, GenBank AF004927; Used as prey; also called sigma 1 receptor; source: E. coli BL21 (KRX), purified (GSTrap FF; when necessary cleaved with ProTEV and electroeluted)
# T2 sequence (O55242 whole entry): as the sequence (O55242 whole entry, the tested form may be a part) above
# [1] = molecular target: B1; experiment: pull-down; displacement assay: HINT1 200 nM preincubated with agarose-NR1 or agarose-MOR in 50 mM Tris-HCl pH 7.5, 2.5 mM CaCl2, 0.2% CHAPS at RT; free HINT1 removed; σ1R added (100 nM, 300 nM or 1 uM on NR1; 300 nM on MOR); Western blot of bound HINT1 and σ1R
Binder,binding result (GST-σ1R),binding result (recombinant σ1R),binding result [1]
B1,binds,–,–
B2,–,binds,binds
